From the DeepSol protein solubility set

assay: soluble on expression in E. coli; label from the status in PepcDB or PDB records

Sequence | soluble on expression in E. coli
MGSDKIHHHHHHMHDYYQLVTVADLPQDNRQILDTLTAIGAGKLPNDLRLLNYYRSIPVNYGATVESVERGSVELTVNQQQAIVMQLEKQVFLKSGHFPKDVLAAVTYVNIDKSVAILANFAYAVIRSERRQFVRVEVKDKIEASFSGDGFTVAGLLNDISLGGVAISATIPTHPDAGIKGKVTLRLPGGPFEMPAQVLRVIPAYYTDLCIIEIQPDNRTEKGISQYIFQRQVEIIRELKDSIF | not soluble
MELRHIRYFLAVAEERHFTRAATKLGIGQPPLSQQIKDLERELGAQLFRRVPHGAELTEAGKAFYDVVKGMPATATRAVLAAQRVARGESGVLRVGFTASAAFNSVVPGAIRTFKRAYPDVRLQLEEGNTTQLADELNEGSLDVAFLRPGFTGNERFQLRLLSEEPMVIVLAETHPAAACKQIALSILKDEFFLLFPREIGLSLYDAVIKACGKAGFEPKIGQLVPQISSVINLVSAEMGVSMVPDSMRQVNVKGVVYRPVADQMPVAKLALAYRRGDTSPTLRNFILKVTG | not soluble
MTIDRVCTIGPASNNKETLAKLINNGMKIVRLNLSHGTHESHKDIIRLVKSLDDSIKILGDVQGPKIRLGEIKGEQITLQAGDSFMLRTQPVTGSSTEASVDYEGIANDVKVGSRILMNDGEVELIVEKVSTDKIETKVKTGGNISSHKGVNLPGAIVSLPAITEKDKKDIQFLLEEDVDFIACSFVRKPSHIKEIRDFIQQYKETSPNLIAKIETMEAIENFQDICKEADGIMIARGDLGVELPYQFIPLLQKMMIQECNRTNTYVITATQMLQSMVDHSIPTRAEVTDVFQAVLDGTNAVMLSAESASGEHPVESVSTLRLVSEFAEHVKKDGPFVMKDVLELLHKSLDE | soluble
MGSDKIHHHHHHMKTMRKILEIDEERCNGCGLCVLDCAEGAIAIVDGKAKIVSDSFCDGLGACIGSCPQDALHIIEREAVPFDEEAAMEHVRSQGGTPEANHGHGHGAGTPHRHGQSAEHGGHGRIPGHGGCPGAAMRRFDSAESPAFAVAEGTVKGPGHWPLKIRLVPPTAPFLKGADVLVAADCAAAASPIFHSHFAAGKVVLIGCPKFDDTEAYAERLADILRVSGIASLTVLRMEVPCCRGLSAAAEKARVLSGTSLVLKEVIMTCAGGPAAPAPLSSL | not soluble
GSHMSGEDAEVRAVSEDVSNGSSGSPSPGDTLPWNLGKTQRSRRSGGGAGSNGSVLDPAERAVIRIADERDRVQKKTFTKWVNKHLIKAQRHISDLYEDLRDGHNLISLLEVLSGDSLPREKGRMRFHKLQNVQIALDYLRHRQVKLVNIRNDDIADGNPKLTLGLIWTIILHFQISDIQVSGQSEDMTAKEKLLLWSQRMVEGYQGLRCDNFTSSWRDGRLFNAIIHRHKPLLIDMNKVYRQTNLENLDQAFSVAERDLGVTRLLDPEDVDVPQPDEKSIITYVSSLYDAMPRVP | soluble
GSHMTNVTGDYTDCTPLLGDRAALDSFYEEHGYLFLRNVLDRDLVKTVAEQMREGLVALGAADPHATLEELTIDSFESVDEVAMHDYVKYDAFWNNPSTIKVFEQVFGEPVFVFLSTTIRYYPSQAGSEEPSFHYLTPFHQDGFYIGPNQDFRTFWIPLIRTTRESGGVALADGSHRRGKRDHVLNESFRRFGHPVRGIPPTEVSEDEHLLHSPMEPGDILLFHAHMCHKSIPNLSKDPRLMRMSMDTRVQPAKSHRGFNAMTPWTESAKDASKGIMAKITGTPTDVE | soluble
AMGQTVTTPLSLTLGHWKDVERIAHNQSVDVKKRRWVTFCSAEWPTFNVGWPRDGTFNRDLITQVKIKVFSPGPHGHPDQVPYIVTWEALAFDPPPWVKP | soluble
GPLGSMASATLGSSSSSASPAVAELCQNTPETFLEASKLLLTYADNILRNPSDEKYRSIRIGNTAFSTRLLPVRGAVECLFEMGFEEGETHLIFPKKASVEQLQKIRDLIAIERSSRLDGSSKK | soluble
MATYRQRGKKKLWDYRIFNEKSELVASGSGFKTKREAMNEAMRIEQQKLLVNSISSDITLYDLWFEWYSLIIKPSNLAETTKNKYFTRGSVIRKLFGNQKVNKIKHSAYQRKLNTYAEKYTKNHVRRLNSDIKKAIQFAKRDGVLLSDFTDGVVIAGRKFVKDADDKYLHSIFDYKKVISYLENNLDYSNSIVYYLLLVLFKTGLRVGEALALTWDDVNFEDLEIKTYRRFSGDKGTFSPPKTKTSIRTIPISQSLALILRDLKDDQQVMLKNLKIVNMNNQIFYDYRYGVSTNSAINKSLKNVLKILNINSKMTATGARHTYGSYLLAKGVDIWVVARLMGHKDITQLLETYGHVLTEVINKEYETVRSLVS | not soluble
MGSDKIHHHHHHMRAVTAQAITEAVAKLCKEACYYVTPDMYAAFKKAEETEVSPLGKHILGRIIENADIAKREDMPICQDTGMTVVFVEIGQEVKIEGGYIEDAINAGVAKGYTEGYLRKSVVGEPLFNRANTKDNTPAVIHTRIVPGDKLKLKVCPKGFGSENKSVLKMLVPADGLEGVKKVFLEAVKLAGPNACPPMVIGVGIGGTMEKAAILAKKAAVRSVDSYNEHPDYAQLEKDLLEMACATGVGPQGLGGINTAVKVNIEWYPTHIAGLPVAVNINCHAARHADVTL | not soluble
MAAAVFHMEILQLNDLSSRLNPLATKNVVLHVCLGVRYFPNSACKSYKDAQALCKDGDGMSLTGPAQSMEKAFFKESVPKVDKCVIFLDGLALNHDEPYNFEFEDETHDGTKNYRFNSEDPNSQTAPNYIVFEYHVSGAHVFDRS | not soluble
MGSDKIHHHHHHMIDSMTHRKLSNTAQRPSPTRPRHGANATWRMLSVSALMLAMASTATWASDVKSQQTQAADIARNMANNTDTCYVEGVSDRLNCGFVTVPENPNKPDGKQIQVHYVVLPAVKNVNHEEALLAIAGGPGQSAIDNAAGFDAMLSKVRQQRDILLIDQRGTGRSNLLTCDEGAQSPLSFDDDNADTLAETQKCLAKIDADVTQYGSLNAIKDFEAVRQHLGYKKLHIYGISYGTRMAQLYMRLYPAHLATVTLDGIVPMQQSVLEIGASIDRGFDLLFKDCQETTACHAQFPELKAEFDQVAASLAKAPVMENVYDPVTGEKTMLTMTRGKFYGSIRMALYQANVRALVPHAIHQAAKHNFQPILGLYSLTTDNAGMAMGMHASVVCGEDMPRITPAMREQAQHSFMGKTMLEGLEATCEVWKVPAVDDSFSEPISSDIPTLLLSGEIDPATPPSWGELAMEKLTNAKHFVAPYATHGVAYQSCANNLIADLVRSGSVKDLDGECLKKDVRRSFYLNASSVEPLDATSTKTTDDNASTGAKE | not soluble
MQALILEQQDGKTLASVQHLEESQLPAGDVTVDVHWSSLNYKDALAITGKGKIIRHFPMIPGIDFAGTVHASEDPRFHAGQEVLLTGWGVGENHWGGLAERARVKGDWLVALPAGLSSRNAMIIGTAGFTAMLCVMALEDAGIRPQDGEVVVTGASGGVGSTAVALLHKLGYQVAAVSGRESTHGYLKSLGANRILSRDEFAESRPLEKQLWAGAIDTVGDKVLAKVLAQMNYGGCVAACGLAGGFALPTTVMPFILRNVRLQGVDSVMTPPARRAEAWARLVKDLPESFYAQAATEITLADAPKFADAIINNQVQGRTLVKIK | not soluble
MREFGEKIKRLRLAKKISRSEFCGDESELSIRQLIRIENGESRPILTKLKYIAERLGVEDYKLMPSYIELDKEYLELKYFLMRTPTYEDETIAQKKESVFDKIFEEYYDRLPEEERFIIPNYSYLALTNYTVQKLPEKLVEILSFW | not soluble
MRHGCHTVIASRSLPRVLTAARKLAGATGRRCLPLSMDVRAPPAVMAAVDQALKEFGRIDILINCAAGNFLCPAGALSFNAFKTVMDIDTSGTFNVSRVLYEKFFRDHGGVIVNITATLGNRGQALQVHAGSAKAAVDAMTRHLAVEWGPQNIRVNSLAPGPISGTEGLRRLGGPQASLSTKVTASPLQRLGNKTEIAHSVLYLASPLASYVTGAVLVADGGAWLTFPNGVKGLPDFASFSAKL | not soluble
ANADNYKNVINRTGAPQYMKDYDYDDHQRFNPFFDLGAWHGHLLPDGPNTMGGFPGVALLTEEYINFMASNFDRLTVWQDGKKVDFTLEAYSIPGALVQKLTAKDVQVEMTLRFATPRTSLLETKITSNKPLDLVWDGELLEKLEAKEGKPLSDKTIAGEYPDYQRKISATRDGLKVTFGKVRATWDLLTSGESEYQVHKSLPVQTEINGNRFTSKAHINGSTTLYTTYSHLLTAQEVSKEQMQIRDILARPAFYLTASQQRWEEYLKKGLTNPDATPEQTRVAVKAIETLNGNWRSPGGAVKFNTVTPSVTGRWFSGNQTWPWDTWKQAFAMAHFNPDIAKENIRAVFSWQIQPGDSVRPQDVGFVPDLIAWNLSPERGGDGGNWNERNTKPSLAAWSVMEVYNVTQDKTWVAEMYPKLVAYHDWWLRNRDHNGNGVPEYGATRDKAHNTESGEMLFTVKKGDKEETQSGLNNYARVVEKGQYDSLEIPAQVAASWESGRDDAAVFGFIDKEQLDKYVANGGKRSDWTVKFAENRSQDGTLLGYSLLQESVDQASYMYSDNHYLAEMATILGKPEEAKRYRQLAQQLADYINTCMFDPTTQFYYDVRIEDKPLANGCAGKPIVERGKGPEGWSPLFNGAATQANADAVVKVMLDPKEFNTFVPLGTAALTNPAFGADIYWRGRVWVDQFWFGLKGMERYGYRDDALKLADTFFRHAKGLTADGPIQENYNPLTGAQQGAPNFSWSAAHLYMLYNDFFRKQ | soluble
MSSAKHFTEVLIGGKVYTLSGFEGEEYLQKVSSYLNHKITECANSEGYRKQSADTRNVLLALNIADDYFKAKKQGDSLESDIELKDKEMYDLKHELISVQIKLENAEKELAKMKEENNDLQMQIVKLETEMKNRRK | not soluble
MSPLNLHTDTTPSLLTFSDVKSFEKIYTMYWARVYATCYNTIKEREVAKEMVQDIFKSLWERKDELEIKTSVEHYLVRAAKFKVFEYIRNKTNQKKHTACALEDYCSATNCTEDAILYSNLTEKVGVLVDRLPCQCRNVYTLSRTEGLTNKEIATRLLISERAVEQHITKALRFLRENLQEYRS | not soluble
MLILGLVISCGGSKDITLPNKNVKIEGDVLTFKGKPFTGNIKMNLADKMDGYAGAMSFKDGHLDGLTDLKNDKENQQVKFTVVDGKFDGELIMKDAKQRTDIVLDIKNGAIVKYLADVQGAYKYDLSFVDNLANGTMEAQGQKFEFKDGIAKGPQGQELKLTLDPESGDLTMEAMVNGKVAGKQTIPNVLTPQYLETFIFRAVTMTNR | not soluble
MSLQITGVNQYHLEHRLEEPFHPTWIPGYPQSTHELELFEIETDAGITGYGASPSFAGGLDYETPLELFLTGEDPHNVDGILGKLETVNLVGPRPWHIEMALWDIIGKDAGKPVCELFGAEQRAIPAYASSGEIQPADERIDYVEQRIDEGFDAVKLRVTETDHIETVRAVRESFPDLTLMVDANKGWAVRVMEEPTEWSFSDALEFARELDAVGGVEWLEEPLHRHDYDGYARLRDAVDVNIAGGEFNNGIHHFREFVDRGSLDILQPDAALATGIRRAVDVARMGEANGLQFVPHTWTNAVGFAANLHVMTAVGSPWCEYPMEPPWTPDVWSFMLEDGFEHDDGVVRAPSKPGLGIEIPDKVLEDAGEGHHHHHH | soluble
GLQTYEYGLKPQDGFEVITHFEFTSQHLDILNRLFTPLIGVESIGLYHFMSQFIDESQQLGLTHYIFMNELKINLLDFREQMDNLEAIGLIKTFVRHEEKYSHFVYELIQPPTAYQFFNDPMLSVFLFSEVDKKRYQALKSYFEKDEKDLSKYQQTTRKFTEVFNVPKKVNVSDQINLKQIKHYDGIDLSNETFDFEMLRQMLNHHFISNEIIDKEAKNLIIQLATLYGITEDGMKNVILSSITSAQQLSFEEMRKKARTYYLIEHDNQLPKLEHQTNKINDEKKDRQAEDTTNDWLQLLDETSPIDMLASWSDSEPTQSQKSMIEELINREKMNFGVINILLQFVMLKEDMKLPKSYIFEIASNWKKIGISNAKQAYEYALQVNQPKNYETHSNDKRQNNRGRQNQFLSKEKTPKWLQNRDDQEENKEINDDTLEEDRQAFLEKLNQKWKEEDN | not soluble
